# Measurements: article doi:10.1101/2020.05.26.116228, “Cataract-associated New Mutants S175G/H181Q of βB2-Crystallin and P24S/S31G of γD-Crystallin are Involved in Protein aggregation by Structural Changes” (bioRxiv, 2020)
# B1: S175G/H181Q βB2-crystallin (natural protein, human)
# chain: ASDHQTQAGKPQSLNPKIIIFEQENFQGHSHELNGPCPNLKETGVEKAGSVLVQAGPWVGYEQANCKGEQFVFEKGEYPRWDSWTSSRRTDSLSSLRPIKVDSQEHKIILYENPNFTGKKMEIIDDDVPSFHAHGYQEKVSSVRVQSGTWVGYQYPGYRGLQYLLEKGDYKDSGDFGAPQPQVQSVRRIRDMQWHQRGAFHPSN
# notes: human βB2-crystallin with the double mutation found in nuclear cataract lenses, made by site-directed mutagenesis of pGEX-4t-1 CRBB2; also called S175G/H181Q mutant; CRBB2 S175G/H181Q; source: E. coli BL21 (DE3), purified (glutathione-agarose, cleaved from GST with thrombin)
# Biological target: the molecule itself
# Assay: SEC; Superdex 200 HR 10/30 in PBS (140 mM NaCl, 2.7 mM KCl, 10 mM Na2HPO4, pH 7.4), 0.5 mL/min; protein 2 mg/mL or 450 μg/100 μL (methods); markers albumin 66.4 kDa and α-lactalbumin 14.2 kDa; dimer in rapid equilibrium with monomer
protein,measurement,value
B1,binding result,binds
